Measurements from patent US20240409645A1 (DUALYX, published 2024).

T1: human IL-2Rγ (common cytokine receptor γ-chain) (human, UniProt P31785 23-262, limits assumed)
T1 construct: Recombinant protein coated on the plate or immobilised on a CM5 chip; also called hu IL-2R; CD132
T1 sequence: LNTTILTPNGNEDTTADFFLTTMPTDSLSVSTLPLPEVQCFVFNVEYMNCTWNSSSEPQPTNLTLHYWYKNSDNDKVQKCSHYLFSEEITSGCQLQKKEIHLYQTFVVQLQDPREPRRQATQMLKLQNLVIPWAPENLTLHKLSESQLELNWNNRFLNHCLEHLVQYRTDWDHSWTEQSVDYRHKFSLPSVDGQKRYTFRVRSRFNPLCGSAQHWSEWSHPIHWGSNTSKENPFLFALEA


Assays:
[1] = target: T1, human IL-2Rγ (common cytokine receptor …); test: SPR off-rate ranking, periplasmic extract on immobilised protein
Method: SPR was performed to determine dissociation rates using Biacore 3000 instrument (GE Healthcare). Briefly, human and mouse IL-2R proteins were immobilized on carboxylmethyl dextran sensor chip (CM5) at approximately 2500 RUs using amine coupling in acetate buffer (GE Healthcare). The VHH-containing P.E. were loaded with a flow rate of 30 uL/min and the off-rates were measured over a 120s period.

[2] = target: T1, human IL-2Rγ (common cytokine receptor …); test: PE binding ELISA, periplasmic extract on coated protein
Method: In a binding ELISA, human or mouse IL-2Rα, IL-2Rβ and IL-2Rγ proteins were coated directly on maxisorp microtiter plates overnight at 4° C. Free binding sites were blocked using 4% Marvel in PBS for 1 hour. Next, 1:5 dilution of P.E. in 1% Marvel/PBS were added to wells and incubated for 1 hour. […] Binding specificity was determined based on O.D. at 450 nm values compared to negative controls.

Row | Binder | koff [1] | OD (PE binding ELISA) [2]
1 | FJ1427_P035MP04D11 (VHH, VHH in periplasmic extract; also called clone nr) VHH: EVQLVESGGGLVQAGGSLRLSCAASGRTFGAVAVGWFRQVPGKEREFVAAINRSGSATKYADSVKGRFTISRDNAESPVFLQMNSLKPEDTAVYYCAADSLPYGRPYYFQTSAGEYDYWGQGTQVTVSS | 0.0401 s⁻¹ | 1.41 OD450 nm
2 | 32-MP04A08 (VHH, VHH in periplasmic extract; also called FJ1427_P035MP04A08; clone nr) VHH: QVQLVESGGGLVQAGGSLRLSCAASGRTFGSTAVGWFRQVPGKEREFVSAINRSGSATTYADSVKGRFTISRDNAKNTVYLQMNSLTPEDTGVYYCAADSLPYGRPYYFQRSAGEYDYWGQGTQVTVSS | 0.0616 s⁻¹ | 0.407 OD450 nm
3 | FJ1427_P035MP04A09 (VHH, VHH in periplasmic extract; also called clone nr) VHH: QVQLVESGGGLVQAGGSLRLSCAASGRTFGAVAVGWFRQVPGKEREFVAAINRNGSATKYADSAKGRFTISRDNAESPVYLQMNSLKPEDTAIYYCAADSLPYGRPYYFQTSAGEYDYWGQGTQVTVSS | 0.0576 s⁻¹ | 1.23 OD450 nm
4 | 33-MP04C09 (VHH, VHH in periplasmic extract; also called FJ1427_P035MP04C09; clone nr) VHH: QLQLVESGGGLVQAGGSLRLSCAASGPTFSRVAVGWFRQAPGKEREFVAAVNRPATMTKYADSVKGRFTVSRDNAKNTVDLQMNSMKPEDTAVYYCAADSVPYGRPYYWQTSAGDYDYWGQGTQVTVSS | 0.031 s⁻¹ | 1.69 OD450 nm
5 | FJ1427_P035MP04F02 (VHH, VHH in periplasmic extract; also called clone nr) VHH: QLQLVESGGGLVQAGGSLTLSCAASGRTFSRDVVGWFRQAPGKEREFVASISRSGDGTFYTDSVKGRFTISSRDNAKNTVLLQMNSLKVEDTAVYYCAAGDGWSTYDYWGQGTQVTVSS | 0.0026 s⁻¹ | 0.196 OD450 nm
6 | FJ1427_P035MP04C12 (VHH, VHH in periplasmic extract; also called clone nr) VHH: EVQLVESGGGWVQVGESLRLSCAPSGRTFVSGIMGWFRQAPGKEREFVARIILNNNSTRYIDSVKGRFTISRDSAKNTMYLQMDSLRPEDTAVYYCAARDRYGSGNSLSPSAYDYWGQGTQVTVSS | 0.00732 s⁻¹ | 1.68 OD450 nm
7 | FJ1427_P035MP04F09 (VHH, VHH in periplasmic extract; also called clone nr) VHH: QVQLVESGGGWVQVGESLRLSCAPSGRTFVRGIMGWFRQAPGKEREFVARIILNNNSTRYTDSVKGRFTISRDSAKNTMWLQMDSLRPEDTAVYYCAARDRYGSGNSLSPSAYDYWGQGTQVTVSS | 0.00795 s⁻¹ | 1.77 OD450 nm
8 | FJ1427_P035MP04D12 (VHH, VHH in periplasmic extract; also called clone nr; 380) VHH: QVQLVESGGGWVQVGKSLRLSCAPSGRTFVSGIMGWFRQAPGKEREFVARIILNNNSTRYIDSVKGRFTISRDSAKNTMYLQMDSLRPEDTAVYYCAARDRYGSGNSLSPSAYDYWGQGTQVTVSS | 0.0072 s⁻¹ | 1.05 OD450 nm
9 | FJ1427_P035MP04E12 (VHH, VHH in periplasmic extract; also called clone nr) VHH: QLQLVESGGGWVQVGESLRLSCAPSGRTFASGIMGWFRQAPGKEREFVARIILNNNSTRYTDSVKGRFTISRDSAKNTMYLQMNTLRPEDTAVYYCAARDRYGSGNSLSPSAYDYWGQGTQVTVSS | 0.00688 s⁻¹ | 1.33 OD450 nm
10 | FJ1427_P035MP04D09 (VHH, VHH in periplasmic extract; also called clone nr) VHH: QVQLVESGGGWVQVGESLRLSCAPSGRTFVRGIMGWFRQAPGKEREFVARIILNSNSTRYIDSVKGRFTISRDSAKNTMYLQMNSLRPEDTAVYYCAARDRYGSGNSLSPSAYDYWGQGTQVTVSS | 0.0207 s⁻¹ | 1.93 OD450 nm
11 | FJ1427_P035MP04E04 (VHH, VHH in periplasmic extract; also called clone nr) VHH: EVQLVESGGGWVQVGESLRLSCVPSGRTFVSGIMGWFRQAPGKEREFVARIILNSNSTRYTDSVKGRFTISRDSAKNTMYLQMNSLRPEDTAVYYCAARDRYGSGNSLSPSAYDYWGQGTQVTVSS | 0.00796 s⁻¹ | 1.73 OD450 nm
12 | FJ1427_P035MP04E02 (VHH, VHH in periplasmic extract; also called clone nr; 301) VHH: QVQLVESGGGWVQVGESLRLSCAPSGRTFVSGIMGWFRQTPGKEREFVARIILNNNSTRYTDSVKGRFTISRDSAKNTMYLQMNTLRPEDTAVYYCAARDRYGSGNSLSPSAYDYWGQGTQVTVSS | 0.00652 s⁻¹ | 1.98 OD450 nm
13 | FJ1427_P035MP04A04 (VHH, VHH in periplasmic extract; also called clone nr) VHH: QVQLVESGGGLVQAGESLRLSCAASGPTASRVAVAWFRQVPGKEREFVAVVNRPGTMTKYADSVKGRFTISRDSAKNTVYLQMNSLKPEDTAVYYCAADSVPYGRPYYFQTSAGNYDYWGQGTQVTVSS | 0.0378 s⁻¹ | 1.31 OD450 nm
14 | FJ1427_P035MP04D08 (VHH, VHH in periplasmic extract; also called clone nr) VHH: QVQLVESGGGLVQAGESLRLSCAASGPTASRVAVAWFRQVPGKEREFVAVVNRPGTMTKYADSVKGRFTISRDSAKNTVYLQMNSLKPEDTAVYYCAADSVPYGRPYYFQTSAGNYDYWGQGTQVTVSS | 0.0195 s⁻¹ | 0.579 OD450 nm
15 | FJ1427_P035MP04C11 (VHH, VHH in periplasmic extract; also called clone nr) VHH: QVQLVESGGGLVQHGGSLRLSCAASGPTFSRVAVGWFRQVPGKEREFVAVVNRPGSMTKYADSVKGRFNISRDTAKNTVYLQMNSLKPEDTAVYYCAADSVPYGRPYYFTTSAGDYDYWGQGTQVTVSS | 0.0693 s⁻¹ | 0.912 OD450 nm
16 | FJ1427_P035MP04B03 (VHH, VHH in periplasmic extract; also called clone nr) VHH: QVQLQESGGGLVQAGESLRLSCAASGPTASRVAVAWFRQVPGKEREFVAVVNRPGTMTKYADSVKGRFTISRDSAKNTVYLQMNSLKPEDTAVYYCAADSVPYGRPYYFQTSAGNYDYWGQGTQVTVSS | 0.0421 s⁻¹ | 1.37 OD450 nm

Now from value to binder:

Row | koff [1] | OD (PE binding ELISA) [2] | Binder
17 | 0.00998 s⁻¹ | 1.8 OD450 nm | FJ1427_P035MP04H10 (VHH, VHH in periplasmic extract; also called clone nr) VHH: QVQLVESGGGLVQAGGSLRLSCAPSGRTFVSGIMGWFRQAPGKEREFVARIILNNNSTRYIDSVKGRFTISRDSAKNTMYLQMDSLRPEDTAVYYCAARDRYGSGNSLSPSAYDYWGQGTQVTVSS
18 | 0.0116 s⁻¹ | 1.4 OD450 nm | FJ1427_P035MP04G11 (VHH, VHH in periplasmic extract; also called clone nr) VHH: QVQLVESGGGWVQVGESLRLSCAPSGRTFVSGIMGWFRQAPGEEREFVARIILNNNSTRYTDSVKGRFTISRDSAKNTMYLQMNTLRPEDTAVYYCAARDRYGSGNSLSPSAYDYWGQGTQVTVSS
19 | 0.00744 s⁻¹ | 0.933 OD450 nm | FJ1427_P035MP04G03 (VHH, VHH in periplasmic extract; also called clone nr) VHH: EVQLVESGGGWVQVGESLRLSCAPSGRTFVSGIMGWFRQAPGKEREFVARIILNNNSTRYTDSVKGRFTISRDSAKNTMYLQMDSLRPEDTAVYYCAARDRYGSGNSLSPSAYDYWGQGTQVTVSS
20 | 0.0104 s⁻¹ | 0.839 OD450 nm | FJ1427_P035MP04G10 (VHH, VHH in periplasmic extract; also called clone nr; 367) VHH: QVQLVESGGGWVQVGESLRLSCAPSGRTFVSGIMGWFRQAPGKEREFVARIILNSNSTRYTDSAKGRFTISRDSAKNTMYLQMDSLRPEDTAVYYCAARDRYGSGNSLSPSAYDYWGQGTQVTVSS
21 | 0.0222 s⁻¹ | 1.87 OD450 nm | FJ1427_P035MP04H09 (VHH, VHH in periplasmic extract; also called clone nr; 360) VHH: EVQLVESGGGWVQVGESLRLSCAPSGRTFVSGIMGWFRQAPGKEREFVARIILNNNSTRYTDSVKGRFTISRDSAKNTMYLQMNTLRPEDTAVYYCAARDRYGSGNSLSPSAYDYWGQGTQVTVSS
22 | 0.0111 s⁻¹ | 2.01 OD450 nm | FJ1427_P035MP04F11 (VHH, VHH in periplasmic extract; also called clone nr) VHH: QVQLVESGGGWVQVGESLRLSCAPSGRTFVSGIMGWFRQTPGKEREFVARIILNNNSTRYTDSVKGRFTISRDSAKNTLYLQMNTLRPEDTAVYYCAARDRYGSGNSLSPSAYDYWGQGTQVTVSS
23 | 0.0147 s⁻¹ | 0.751 OD450 nm | FJ1427_P035MP04F10 (VHH, VHH in periplasmic extract; also called clone nr) VHH: QLQLVESGGGWVQVGESLRLSCVPSGRTFVSGIMGWFRQAPGKEREFVARIISNNNSTRYTDSVKGRFTISRDSAKNTMYLQMNTLRPEDTAVYYCAARDRYGSGNSLSPSAYDYWGQGTQVTVSS
24 | 0.0103 s⁻¹ | 1.77 OD450 nm | FJ1427_P035MP04H11 (VHH, VHH in periplasmic extract; also called clone nr) VHH: QVQLVESGGGWVQVGESPRLSCAPSGRTFVSGIMGWFRQTPGKEREFVARIILNNNSTRYTDSVKGRFTISRDSAKNTMYLQMNTLRPEDTAVYYCAARDRYGSGNSLSPSAYDYWGQGTQVTVSS
25 | 0.00892 s⁻¹ | 1.84 OD450 nm | FJ1427_P035MP04G08 (VHH, VHH in periplasmic extract; also called clone nr) VHH: QVQLVESGGGWVQVGESLRLSCAPSGRTFVSGIMGWFRQAPGKEREFVARIILNNNSTRYTDSVKGRFTISRDSAKNTMYLQMDSLRPEDTAVYYCAARDRYGSGNSLSPSAYDYWGQGTQVTVSS
26 | 0.048 s⁻¹ | 1.3 OD450 nm | FJ1427_P035MP04H08 (VHH, VHH in periplasmic extract; also called clone nr) VHH: EVQLVESGGGLVQAGESLRLSCAASGPTASRVAVAWFRQVPGKEREFVAVVNRPGTMTKYADSVKGRFTISRDSAKNTVYLQMNSLKPEDTAVYYCAADSVPYGRPYYFQTSAGNYDYWGQGTQVTVSS
27 | 0.0658 s⁻¹ | 0.559 OD450 nm | FJ1427_P035MP04G09 (VHH, VHH in periplasmic extract; also called clone nr) VHH: QVQLQESGGGLVQAGGSLRLSCAASGPTFSRVAVGWFRQVPGKEREFVAAVNRPATMTKYADSVKGRFTISRDNAKNTVDLQMNSMKPEDTAVYYCAADSVPYGRPYYFQTSAGEYDYWGQGTQVTVSS
